Results from the supplement of paper PMC6379048.

What was measured:
Test in all cases: EC50 of free RNA motif oligo competing protein binding to immobilised probe
CDKN2AIP = target: T1, CDKN2AIP (UniProt Q9NXV6)
T1 sequence: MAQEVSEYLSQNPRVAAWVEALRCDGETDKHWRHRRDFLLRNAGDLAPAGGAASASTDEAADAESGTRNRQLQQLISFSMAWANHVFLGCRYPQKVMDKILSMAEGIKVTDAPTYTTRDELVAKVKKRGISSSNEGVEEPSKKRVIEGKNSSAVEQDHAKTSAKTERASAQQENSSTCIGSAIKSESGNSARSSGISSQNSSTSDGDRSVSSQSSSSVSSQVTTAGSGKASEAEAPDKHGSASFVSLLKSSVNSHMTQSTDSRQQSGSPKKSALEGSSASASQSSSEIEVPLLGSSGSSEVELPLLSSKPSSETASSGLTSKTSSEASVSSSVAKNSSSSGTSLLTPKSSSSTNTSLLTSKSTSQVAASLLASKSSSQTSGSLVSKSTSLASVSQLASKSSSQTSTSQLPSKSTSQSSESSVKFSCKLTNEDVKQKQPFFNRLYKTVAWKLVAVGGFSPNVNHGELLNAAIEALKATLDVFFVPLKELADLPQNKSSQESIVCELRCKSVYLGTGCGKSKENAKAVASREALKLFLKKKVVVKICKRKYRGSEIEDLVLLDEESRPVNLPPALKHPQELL
Method in brief: (§1)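 HEK293-FT lysate (2.5 mg protein/well) was treated with free RNA oligos (0 nM to 30 μM) for 1 h at 4°C, then with the same oligos on NHS-Sepharose beads for 30 min at 4°C. Bound proteins were quantified by label-free LC-MS/MS relative to the control. EC50 came from a four-parameter log-logistic fit, and Kd is EC50 times a protein-dependent depletion factor.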

PIP5K1A = PIP5K1A (UniProt Q99755)
Sequence of PIP5K1A (Q99755 whole entry): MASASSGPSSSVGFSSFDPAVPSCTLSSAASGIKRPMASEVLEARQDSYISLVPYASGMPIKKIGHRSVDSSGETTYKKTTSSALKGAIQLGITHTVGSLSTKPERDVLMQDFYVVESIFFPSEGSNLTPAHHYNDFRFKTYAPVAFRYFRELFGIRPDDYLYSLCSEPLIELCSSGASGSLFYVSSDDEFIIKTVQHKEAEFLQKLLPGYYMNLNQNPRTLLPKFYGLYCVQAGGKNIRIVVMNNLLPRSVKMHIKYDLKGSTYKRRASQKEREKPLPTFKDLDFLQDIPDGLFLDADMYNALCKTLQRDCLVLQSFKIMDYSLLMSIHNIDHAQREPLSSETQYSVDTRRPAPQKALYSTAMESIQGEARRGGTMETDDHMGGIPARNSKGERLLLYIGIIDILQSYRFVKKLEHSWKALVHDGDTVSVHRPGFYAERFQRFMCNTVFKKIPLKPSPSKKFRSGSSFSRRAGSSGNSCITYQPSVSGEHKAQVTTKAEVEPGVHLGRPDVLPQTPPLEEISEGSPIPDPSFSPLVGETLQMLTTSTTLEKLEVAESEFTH
Method in brief: as §1

SF3B2 = target: T2, SF3B2 (UniProt Q13435)
T2 sequence: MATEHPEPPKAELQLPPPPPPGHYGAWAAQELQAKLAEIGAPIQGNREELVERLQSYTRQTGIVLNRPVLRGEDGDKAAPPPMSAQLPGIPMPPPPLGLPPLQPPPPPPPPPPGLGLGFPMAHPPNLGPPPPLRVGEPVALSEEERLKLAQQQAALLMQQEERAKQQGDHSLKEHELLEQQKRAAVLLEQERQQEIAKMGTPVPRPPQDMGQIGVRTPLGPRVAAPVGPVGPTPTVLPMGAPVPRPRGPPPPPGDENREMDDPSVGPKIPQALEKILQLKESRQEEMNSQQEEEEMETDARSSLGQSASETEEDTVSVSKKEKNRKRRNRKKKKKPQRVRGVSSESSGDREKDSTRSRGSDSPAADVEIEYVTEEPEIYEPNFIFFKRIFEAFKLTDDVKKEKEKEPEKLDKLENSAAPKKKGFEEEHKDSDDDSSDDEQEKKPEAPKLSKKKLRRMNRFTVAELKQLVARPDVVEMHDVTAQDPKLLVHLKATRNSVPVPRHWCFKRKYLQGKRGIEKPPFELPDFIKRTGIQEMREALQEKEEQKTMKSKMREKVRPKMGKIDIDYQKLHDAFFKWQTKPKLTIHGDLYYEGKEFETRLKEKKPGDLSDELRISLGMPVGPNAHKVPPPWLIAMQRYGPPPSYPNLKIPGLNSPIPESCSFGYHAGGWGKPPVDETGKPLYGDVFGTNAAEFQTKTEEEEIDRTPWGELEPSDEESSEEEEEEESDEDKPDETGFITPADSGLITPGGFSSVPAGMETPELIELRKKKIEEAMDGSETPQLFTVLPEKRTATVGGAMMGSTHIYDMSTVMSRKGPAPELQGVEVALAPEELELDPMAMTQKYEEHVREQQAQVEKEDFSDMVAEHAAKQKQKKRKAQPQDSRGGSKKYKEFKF
Method in brief: as §1

SYNCRIP = target: T3, SYNCRIP (UniProt O60506)
T3 sequence: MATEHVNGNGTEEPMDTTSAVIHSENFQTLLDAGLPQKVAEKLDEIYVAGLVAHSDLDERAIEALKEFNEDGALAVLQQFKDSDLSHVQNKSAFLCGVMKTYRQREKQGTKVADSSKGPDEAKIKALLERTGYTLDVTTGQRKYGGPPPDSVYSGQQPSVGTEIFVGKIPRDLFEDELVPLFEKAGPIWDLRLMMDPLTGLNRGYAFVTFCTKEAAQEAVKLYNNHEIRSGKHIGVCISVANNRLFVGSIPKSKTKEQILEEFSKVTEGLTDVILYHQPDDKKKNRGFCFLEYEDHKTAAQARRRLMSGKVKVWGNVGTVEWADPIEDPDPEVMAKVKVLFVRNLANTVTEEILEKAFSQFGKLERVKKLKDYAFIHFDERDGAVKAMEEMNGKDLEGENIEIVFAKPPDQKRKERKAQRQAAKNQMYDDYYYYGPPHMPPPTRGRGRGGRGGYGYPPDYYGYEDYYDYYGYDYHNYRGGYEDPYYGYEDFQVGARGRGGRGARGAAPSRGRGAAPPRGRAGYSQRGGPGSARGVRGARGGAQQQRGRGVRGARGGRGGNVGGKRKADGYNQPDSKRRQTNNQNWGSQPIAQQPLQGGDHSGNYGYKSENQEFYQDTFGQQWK
Method in brief: as §1

Sequence	EC50 (CDKN2AIP) [nM]	EC50 (PIP5K1A) [nM]	EC50 (SF3B2) [nM]	EC50 (SYNCRIP) [nM]
UAUUUAU	419			
AAUAAA		2250	1180	1850
